# What was measured:
# [1] = biological target: HLA-DR (human); assay: indirect flow cytometry on Namalwa cells, FITC-GAM 2nd Ab (none 2.91); control antibody
# [2] = biological target: human serum complement (human); assay: cell-based or functional assay
# [3] = biological target: HLA-DR (human); assay: indirect FACS, FITC-GAH Fc 2nd Ab, Raji cells (none 6.8); control antibody
# [4] = biological target: HLA-DR (human); assay: indirect FACS, FITC-GAH Fc 2nd Ab, Daudi cells (none 3.1); control antibody
# [5] = biological target: HLA-DR (human); assay: indirect FACS, FITC-GAH Fc 2nd Ab, Ramos cells (none 3.1); control antibody
# [6] = biological target: HLA-DR (human); assay: indirect FACS, FITC-GAH Fc 2nd Ab, Namalwa cells (none 2.5); control antibody
# [7] = biological target: HLA-DR (human); assay: indirect FACS, FITC-GAH Fc 2nd Ab, SU-DHL-6 cells (none 4.6); control antibody
# [8] = biological target: HLA-DR (human); assay: indirect FACS, FITC-GAH Fc 2nd Ab, WSU-FSCCL cells (none 2.6); control antibody
# [9] = biological target: antigen on dog lymphoma cells recognised by L243 and hL243 (dog); assay: flow cytometry on dog lymphoma aspirate, humanized MAbs (none 3.24); control antibody
# [10] = biological target: antigen on dog lymphoma cells recognised by L243 and hL243 (dog); assay: flow cytometry on dog lymphoma aspirate, humanized MAbs (none 4.48); control antibody
# [11] = biological target: HLA-DR (human); assay: indirect flow cytometry on Namalwa cells, FITC-GAH 2nd Ab (none 2.52); control antibody
# [12] = biological target: HLA-DR (human); assay: indirect flow cytometry, FITC-GAH Fc 2nd Ab, RL cells (none 2.4); negative control antibody
# [13] = biological target: HLA-DR (human); assay: indirect flow cytometry, FITC-GAH Fc 2nd Ab, Raji cells (none 6.9); negative control antibody
# [14] = biological target: HLA-DR (human); assay: indirect flow cytometry, FITC-GAH Fc 2nd Ab, Daudi cells (none 3.2); negative control antibody
# [15] = biological target: HLA-DR (human); assay: indirect flow cytometry, FITC-GAH Fc 2nd Ab, Ramos cells (none 3.1); negative control antibody
# [16] = biological target: HLA-DR (human); assay: indirect flow cytometry, FITC-GAH Fc 2nd Ab, Namalwa cells (none 2.6); negative control antibody
# [17] = biological target: HLA-DR (human); assay: indirect flow cytometry, FITC-GAH Fc 2nd Ab, SU-DHL-6 cells (none 4.6); negative control antibody
# [18] = biological target: HLA-DR (human); assay: indirect flow cytometry, FITC-GAH Fc 2nd Ab, WSU-FSCCL cells (none 2.7); negative control antibody
binder,measurement,setting,value
"MN14 (murine) (antibody, from a related filing, V domains shown) VH: EVKLLESGGGLVQSGGSLKLSCAASGFDFTTYWMSWVRQAPGKGLEWIGEIHPDSSTINYAPSLKDKFIVSRDNAKNTLYLQMSKVRSEDTALYYCASLYFGFPWFAYWGQGTPVTVSA VL: EIQLTQSHKMMSTSVGDRVSITCKASQDVGTSVAWYQQRPGQSPKLLIYWTSTRHTGVPDRFTGSVSGTDFTLTITNVQSEDLADYFCQQYSLYRSFGGGTKLEIK",GEO MEAN Fluorescence,[1],3.32
"hL243γ1 (antibody, human IgG1, V domains shown) VH: QVQLQQSGSELKKPGASVKVSCKASGFTFTNYGMNWVKQAPGQGLKWMGWINTYTREPTYADDFKGRFAFSLDTSVSTAYLQISSLKADDTAVYFCARDITAVVPTGFDYWGQGSLVTVSS VL: DIQLTQSPSSLSASVGDRVTITCRASENIYSNLAWYRQKPGKAPKLLVFAASNLADGVPSRFSGSGSGTDYTFTISSLQPEDIATYYCQHFWTTPWAFGGGTKLQIKR","complement-mediated cytotoxicity (CDC) on Daudi cells, resazurin viability, EC50",[2],2.6 nM
"hMN-14 (antibody, INN chains, looked up, V domains shown) VH: EVQLVESGGGVVQPGRSLRLSCSASGFDFTTYWMSWVRQAPGKGLEWIGEIHPDSSTINYAPSLKDRFTISRDNAKNTLFLQMDSLRPEDTGVYFCASLYFGFPWFAYWGQGTPVTVSS VL: DIQLTQSPSSLSASVGDRVTITCKASQDVGTSVAWYQQKPGKAPKLLIYWTSTRHTGVPSRFSGSGSGTDFTFTISSLQPEDIATYYCQQYSLYRSFGQGTKVEIKR",Geometric Mean Fluorescence,[3],6.96
same,Geometric Mean Fluorescence,[4],3.16
same,Geometric Mean Fluorescence,[5],3.13
same,Geometric Mean Fluorescence,[6],2.36
same,Geometric Mean Fluorescence,[7],4.94
same,Geometric Mean Fluorescence,[8],2.66
same,Mean FL,[9],3.24
same,%,[10],4.63%
same,GEO MEAN Fluorescence,[11],2.49
same,Geometric Mean Fluorescence,[12],2.8
same,Geometric Mean Fluorescence,[13],7
same,Geometric Mean Fluorescence,[14],3.2
same,Geometric Mean Fluorescence,[15],3.1
same,Geometric Mean Fluorescence,[16],2.4
same,Geometric Mean Fluorescence,[17],4.9
same,Geometric Mean Fluorescence,[18],2.7

# Source: US20100196267A1
